Measurements reported in paper PMC8472802, “Agaricales Mushroom Lignin Peroxidase: From Structure–Function to Degradative Capabilities” (Antioxidants, 2021).
Substitutions are numbered along the chain they refer to. Names and notes keep the numbering of the source.

B1: ApeLiP (LiP of Agrocybe pediades) (Agrocybe pediades) (protein)
chain: AVTCPTGQTTANEACCVLFPVIDLLQEELFDGGECGEEAHAALRLAFHDAIGFSKNGGKGGGADGSILAFHQTETTYAANSGIEDIITAQLPIFQKTNLTAGDFVHLAAAIGTGNCPGSPQLAYSFGRPPPVAPAPDGTVPEPTDSVTDILARFSEAGFVTAEVIWLLASHSIAAASKIDTSAPRTPFDSTPALFDTQFYLETILNGTLLPGDGGAHTGEVLSPIAGEMRLQSDFAFAQDPRTACLWQEPINDQAFIQGKFFAAMKKLQVLGQTGLTDCSDVIPVPASLPGPITFPAGFSEADVISACTATPLPSLATIAGPKPTIPPVPL
B2: ApeLiP (LiP of Agrocybe pediades) (Agrocybe pediades; W166A) (protein)
chain: B1 chain with W166A

Key:
Assay in all cases: purified protein
Assay type in all cases: biochemical, Agrocybe pediades
purified protein [1] = substrate: Nc1c(N=Nc2ccc(S(=O)(=O)CCOS(=O)(=O)O)cc2)c(S(=O)(=O)O)cc2cc(S(=O)(=O)O)c(N=Nc3ccc(S(=O)(=O)CCOS(=O)(=O)O)cc3)c(O)c12; details: Hill n = 2.11 ± 0.30, pH 3.0, 25 °C, 0.4 mM H2O2
purified protein [2] = substrate: COc1ccc(CO)cc1OC; details: pH 4.0, 25 °C, 0.4 mM H2O2, fit with substrate inhibition
purified protein [3] = substrate: COc1cccc(OC)c1O
purified protein [4] = substrate: CCn1c(=NN=c2sc3cc(S(=O)(=O)O)ccc3n2CC)sc2cc(S(=O)(=O)O)ccc21
[5] = pH 3.0, 25 °C, 0.4 mM H2O2, fit with substrate inhibition
[6] = high-efficiency site of biphasic kinetics, Hill n = 1.62 ± 0.12, 100 mM sodium tartrate pH 3.0, 25 °C, 0.4 mM H2O2
[7] = pH 8.0, 25 °C, 1 mM H2O2, Michaelis-Menten fit despite substrate/product inhibition, no activity at pH 3
[8] = low-efficiency site (only site left), Hill n = 1.62 ± 0.28, strong substrate inhibition, pH 3.0, 25 °C, 1 mM H2O2

| Protein | K0.5 (purified protein [1]) | kcat (purified protein [1]) | kcat/Km (purified protein [1]) | Km (purified protein [2]) | kcat (purified protein [2]) | kcat/Km (purified protein [2]) | Km (purified protein [3]; [5]) | kcat (purified protein [3]; [5]) | kcat/Km (purified protein [3]; [5]) | K0.5 (purified protein [4]; [6]) | kcat (purified protein [4]; [6]) | kcat/Km (purified protein [4]; [6]) | Km (purified protein [3]; [7]) | kcat (purified protein [3]; [7]) | kcat/Km (purified protein [3]; [7]) | K0.5 (purified protein [4]; [8]) | kcat (purified protein [4]; [8]) | kcat/Km (purified protein [4]; [8]) |
| --- | --- | --- | --- | --- | --- | --- | --- | --- | --- | --- | --- | --- | --- | --- | --- | --- | --- | --- |
| B1 | 14 ± 1.4 µM | 21 ± 1.5 s⁻¹ | 1.54e+06 ± 115000 M⁻¹ s⁻¹ | (29.6 ± 4.6) × 10^3 µM | 4.3 ± 0.3 s⁻¹ | 150 ± 30 M⁻¹ s⁻¹ | 37 ± 5.6 µM | 68.6 ± 2.8 s⁻¹ | 1.91e+06 ± 310000 M⁻¹ s⁻¹ | 8.1 ± 0.6 µM | 42 ± 1.8 s⁻¹ | 5130 ± 460 s⁻¹ mM⁻¹ |  |  |  |  |  |  |
| B2 |  |  |  |  |  |  |  |  |  |  |  |  | 49 ± 8.2 µM | 6.1 ± 0.27 s⁻¹ | 125000 ± 22000 M⁻¹ s⁻¹ | 1150 ± 190 µM | 117 ± 10 ^c s^-1 | 102 ± 19 ^c s^-1·mM^-1 |
